Test results taken from the DeepSol protein solubility set.

Assay: soluble on expression in E. coli; label from the status in PepcDB or PDB records

Sequence	soluble on expression in E. coli
MLICNDKSNPKTLLEEIMALRPWRKGPFEISQIKIDSEWDSSIKWDLVKNATPLKDKVVADVGCNNGYYLFKMLEHGPKSLVGFDPGVLVKKQFEFLAPFFDKEKKIIYESLGVEDLHEKYPNAFDVIFCLGVLYHRKSPLEALKALYHALKIKGELVLDTLIIDSPLDIALCPKKTYAKMKNVYFIPSVSALKGWCERVGFENFEILSVLKTTPKEQRKTDFILGQSLEDFLDKTDPSKTLEGYDAPLRGYFKMLKPSKR	not soluble
EVVVVGYGTMKRSDLTGSVASIAAKDVEGFKTSSVAGALGGQIAGVQITSTDGTPGAGFSINIRGVGTLTGDSSPLYIVDGFEVDDIDYLSNSDIESIEVLKDASSSAIYGARAANGVVLITTKSGK	not soluble
MGSDKIHHHHHHMASVYWIPKLRIIPRTKFVTICPITLTLSLSMQYSPNLAHGTLLRRYKRFLADVLLDDGTEITLHCPNTGSMKNCLFPGETVWFSTSNNPKRKYAHTWEQSSTPDKQLIGINTGRANALAEEAINLGVIKELTGYDRLQREVKYGEENSRIDILLSSDTRASCYIEVKSCTLLEEGSTSGRGYFPDSVTVRGQKHLRELIHMVKQGHRAVLLFVVQHSGINSVSPARHIDVAYSELFTQALDAGVEVLAYQTQMSPQESQILTSCPVIT	not soluble
RKEIQPIRELAKAATLMSSRLDVPEVSERGSNELKAAVRAFNKMNRRIDSHIKDREMLFSAISHDLKTPIACLKLRAEMLDDDADRERFIRLSNDLDLMVKGALQCIKETDIHEEIEPINFTQLIQHISSNIADAPDTIRIHGEIRTHFAGK	not soluble
MGSDKIHHHHHHMRTFRLVIACPDRVGIVAKVSNFLASHNGWITEASHHSDNLSGWFFMRHEIRADTLPFDLDGFREAFTPIAEEFSMDWRITDSAQKKRVVLMASRESHCLADLLHRWHSDELDCDIACVISNHQDLRSMVEWHDIPYYHVPVDPKDKEPAFAEVSRLVGHHQADVVVLARYMQILPPQLCREYAHQVINIHHSFLPSFVGAKPYHQASLRGVKLIGATCHYVTEELDAGPIIEQDVVRVSHRDSIENMVRFGRDVEKMVLARGLRAHLEDRVLVHDNKTVVFD	not soluble
MLVEEAPVDADLGAAVTRLRALALEALCAGSLSAEQVLDHTRPAALALALAVCTPAEYARPWFRRATGDVRVLLARRLAEELGEDHVRWAAAIDLSGSFAGSVGELLHSDEAPGSVHRFLHPHRSSHATQNLLLALAPRDVAARYLAGLVETRRPNVVAYKMDWMLRSGPLSRPLVARGVGGSVGGQRELLGNDLCPDFVLEQVHGGYARHVMYREIIPPKVLKRAFRAYAASEPAHEVRAWAVSLLGERTDRLMDLAWSLTDAPTLLHRLVAAVLDRADPATLTCLYGALAEAAGPEPVWALDLERAGSLDAVQPAVRASMAAGSAEPLVEAAKRIPRRHWLDVLDEEAFGGQMLRDEAELDRTGHFPLEALVAARLDGRPERWAEVARQVAGGRMPVEAVVEGVVAAAIEEIGESAAKTAPETPTEAAPETTAEAAPQTPAEAAPQTPANAAPQTPTKPAPQPPAASPIAAPPAHAAPSASTT	not soluble
SLCGEPGCRHEQTAVKAGRSRNWAGSFAKTPGRLFGVGFIRLYQLTLSGFVGNSCRHIPTCSEYGYEAIARHGLWAGGWMALFRVARCGPGGTSGLDPVPEELDGSKRWWTPWRYWSRHR	soluble
MLAKRIIPCLDVRDGQVVKGVQFRNHEIIGDIVPLAKRYAEEGADELVFYDITASSDGRVVDKSWVSRVAEVIDIPFCVAGGIKSLEDAAKILSFGADKISINSPALADPTLITRLADRFGVQCIVVGIDTWYDAETGKYHVNQYTGDESRTRVTQWETLDWVQEVQKRGAGEIVLNMMNQDGVRNGYDLEQLKKVREVCHVPLIASGGAGTMEHFLEAFRDADVDGALAASVFHKQIINIGELKAYLATQGVEIRIC	not soluble
MELKDDDFEKISELGAGNGGVVFKVSHKPSGLVMARKLIHLEIKPAIRNQIIRELQVLHECNSPYIVGFYGAFYSDGEISICMEHMDGGSLDQVLKKAGRIPEQILGKVSIAVIKGLTYLREKHKIMHRDVKPSNILVNSRGEIKLCDFGVSGQLIDSMANSFVGTRSYMSPERLQGTHYSVQSDIWSMGLSLVEMAVGRYPIPPPDAKELELMFGCQVEGDAAETPPRPRTPGRPLSSYGMDSRPPMAIFELLDYIVNEPPPKLPSGVFSLEFQDFVNKCLIKNPAERADLKQLMVHAFIKRSDAEEVDFAGWLCSTIGLNQPSTPTHAAGVLEHHHHHH	soluble
MDRSAEFRKWKAQCLSKADLSRKGSVDEDVVELVQFLNMRDQFFTTSSCAGRILLLDRGINGFEVQKQNCCWLLVTHKLCVKDDVIVALKKANGDATLKFEPFVLHVQCRQLQDAQILHSMAIDSGFRNSGITVGKRGKTMLVVRSTHGLEVPLSHKGKLMVTEEYIDFLLNVANQKMEENKKRIERFYNCLQHALERETMTNLHPKIKEKNNSSYIHKKKRNPEKTRAQCITKESDEELENDDDDDLGINVTIFPEDY	not soluble
MDNPSKEIDLLLQSSYDMTILTKQGEYNVDSMLSRAHHVASRISSMYKYEKLLQDMQDLTVNGNRRKLILNDLQRENKQIMALQDENRQLRETTQEYLATMRNILDSHAEIEGSIEMGQMNSDIDDADIDRIIFEMANTDQEARLKKKALEMELMMDDLEKMRKEEYQELQLAVQRNKNYKELFKLACFSNQSANSILNSAMKIISEGDGFDDDEAQENEDLNETIIHKKQ	not soluble
MARGCDLCFPGRKAVVFVTGLCDDSCFYCPVSRAKLGRDVFYVNEVPVASVEEAVAEVLRTGASGASLTGGDPLVALHRTLDVARALKSELGRGFHIHLYTSGRRMTPEVARALWEAGVDEVRIHPTERSLLSRVGMVKRYTGMSVGVEMPIAPGLEELAIEAVKTVEAVGGDFVNLNEMEIVEPNARALLARGYTESGERPFTVRGALEAVLRVLEWAAENSSVPVHFCPASFKDSIQTGNRLRSSAARDAYWYEEPTPHGTLTWGEVRGGSPPPGLGEERGGRIMLPPRADLLETVVRMYGGEAYIVEAHPTPSRTPIVSERRIA	not soluble
MDRSERLIQLISEEGIDAFLIMNIENSARASSVYFSGFTGSFSIILISENTRLLITDSRYTVQAKQETDFEVREVKGGDFIDVLKKTVNDLKIKTIALEEERVSLSLFRRISSAFGDRKFIGIDDEVKQMRMVKDEGEIEKIKQAIEISERAFLETVQQIRAGMTEKEIAALLEYTMRKEGAEGVAFDTIVASGCRSALPHGKASDKVVERGDVIVIDFGATYENYCADITRVVSIGEPSDEVKEVHSIVLEAQERALKIAKAGVTGKLLDSVAREFIREKGYGEFFGHSLGHGIGLEVHEGPAISFRNDSPLPENVVFTVEPGIYLEGKFGIRIEEDVVLKEQGCEILTTLPRSIFVV	soluble
MKERILQEIKTRVNRKSWELWFSSFDVKSIEGNKVVFSVGNLFIKEWLEKKYYSVLSKAVKVVLGNDATFEITYEAFEPHSSYSEPLVKKRAVLLTPLNPDYTFENFVVGPGNSFAYHAALEVAKHPGRYNPLFIYGGVGLGKTHLLQSIGNYVVQNEPDLRVMYITSEKFLNDLVDSMKEGKLNEFREKYRKKVDILLIDDVQFLIGKTGVQTELFHTFNELHDSGKQIVICSDREPQKLSEFQDRLVSRFQMGLVAKLEPPDEETRKSIARKMLEIEHGELPEEVLNFVAENVDDNLRRLRGAIIKLLVYKETTGKEVDLKEAILLLKDFIKPNRVKAMDPIDELIEIVAKVTGVPREEILSNSRNVKALTARRIGMYVAKNYLKSSLRTIAEKFNRSHPVVVDSVKKVKDSLLKGNKQLKALIDEVIGEISRRALSGLEHHHHHH	soluble
DCYCRIPACIAGEAAYGTCIYQGALWAFCC	soluble
MGSDKIHHHHHHMVNLMNINSHYLHNNSHECVSLSVRSKGTTQCPDIKVTQKAHIELGTLATPQLVRRRSGRYTIRLRLKGHAKPFISVSTRTTNRSIAVMRQKELATTAKAFLLDNPEVSKEELREHLKAMAEWLLTEATDDYWNGLDIAWLEDAKVNLRNIAATERLSAVQQTHIVESLKVLEAGQKRVDYGDATGLLDFVADDNTDSANNHTQGSTIGVLSSNLENQQGGSSSVFTYDDLVSMTLAEKITTLATSSYRDLQSSFSTVRGYAPVDLMDRSAWLKARDELLANGKAAITVNKLFVKVRMAIDYALMNGHLQGRNPIEKMKLTKDAESKRRAMTDEEIQMVLKAAESAPEARRWAVLVSIITGARSAEVAQLTKENIVVVDGITCIDINDDEGKKVKNKHSIRLIPLIDGAYGFNLEAFLKFVNTREPKTAIFGMTAGTYTAYFGRSIKGSIDALKDTKNVCMHSLRHSLTGKLKAAGVPLADAQGVLGHSSQSITYDLYGKGHAIGRLSDALRLALSGTGQ	not soluble
MGSDKIHHHHHHMSPDVDIKALRCFLALAQELSFGRAAERMNLTQPSLSAQIRKLEDQVGHRLFERTTRAVHLSPTGKALIEQARTFVSQADAFAAHLSAWRERPDRRMVLGAPIYTFELPEHGALLSAIARELPDMSLRVDNGFANSLVEGLIKGSVDMAMVVAAAVPHDRYLADMAGEGAGELEMPDGLQRITLSDEQIGLAIPEEHPLASYDIVPPEALSGSVIAMLAPLHGRSLYRPISVWLSAAGATGFLPPEAHAFALERYCREYRIPAISIAQFRPRETGNVVYRPAGGLNVRTELAVLRSTRKQRSSIEERLWDLASSLGR	not soluble
MAKRVADAQIQRETYDSNESDDDVTPSTKVASSAVMNRRKIAMPKRRMAFK	soluble
MSDSAVVAAAVEPKVPKAKAAKAAKPTKVAKAKAPVAHPPYINMIKEAIKQLKDRKGASKQAILKFISQNYKLGDNVIQINAHLRQALKRGVTSKALVQAAGSGANGRFRVPEKAAAAKKPAAAKKPAAAKKPAAAKKATGEKKAKKPAAAKPKKAATGDKKVKKAKSPKKVAKPAAKKVAKSPAKKAAPKKIAKPAAKKAAKPAAKA	soluble
MKIRLLVSILCILFAGCALQQTNRALQPDQRWVTQTLPNGLTYHLYPDSEQEVSIRLYVHAGSMQETAQQAGYAHFIEHMAFNGTRHYQHNDVIRMFEQSGAQFGADFNALTGYDRTVYQLDLPNAQNIDKALLWFADIADGLAFDADEVEKEKGVILGEFRASRTENMSLEQQFYLHQIQGTSYADRDPLGSRELVQAATPDSLKAFYQQWYQPQLAELVITGNFTLEQGQQWVENYFSSWKKGSTEKPASIYHQALNNQDLVAPVTAGESPSLTLIFPQGSAAIKDYASQQEFWRDDVGEQLLHTRLVAAFNDAAQAITGIYATHYEIEGQRYTLISVGFAAEQREKVQALLLETLASMRDYGVTKNELDIILRGYREHLTFLQEDREAITPASHANQKVYSIVFDTPIQATLDYQASLSEFIASATPEMINRHIQQQLSQNPVWVVGVAATEDAQALNKALPQWRNDLAQPGNQPIDQQIDSPFTQQFTAGEVVKQLDINDDPQVTYWQLDNGIDVYYLRNIEAKDRVFVQYASSGGQFALPADLLPAAEIATAVQTRSGLDTLNGSQFDRYLRQKDIGFYSYIASTSHGFEANSKAQELPELLEILHLLSTQVKVSPDQLNSVKTEFTQNRSAYFDSPIGAFFRTVTNQSFIETSPYRIRTPEQIAQVTAQQIEQVHQRLFSEGRNNTLVIVGDIERSQITPMLRQYVASIPLSKGTLSPMTSQLIKPVAPRLELALNNENSTQYSLRLISETQPRTAKTVFIDDMLQRIATQRLLAEVREHQGLDYTPQVIPYVVDGDILNDWVLSALVDPKSEPQVAKVMHEVARELAQGVTQQELDVVKQKFLIDMKPLNKSPEQQAYFMLRYAIHHYGVETIYKVEELTKSITLDDINQRAQTLFGKDTMSQELIMTPKANPKG	not soluble
